From patent publication US10800847

Legend:
[1] = target: HLA-Cw*0102 (Cw1) (human); assay: Luminex, regular beads (#7), 1:4
[2] = target: HLA-Cw*0401 (Cw4) (human); assay: Luminex, regular beads (#7), 1:4
[3] = target: HLA-Cw*1502 (Cw15) (human); assay: Luminex, regular beads (#7), 1:4
[4] = target: HLA-Cw*0302 (Cw10) (human); assay: Luminex, regular beads (#7), 1:4
[5] = target: HLA-Cw*1701 (Cw17) (human); assay: Luminex, regular beads (#7), 1:4
[6] = target: HLA-Cw*0304 (Cw10) (human); assay: Luminex, regular beads (#7), 1:4
[7] = target: HLA-Cw*0702 (Cw7) (human); assay: Luminex, regular beads (#7), 1:4
[8] = target: HLA-Cw*1601 (Cw16) (human); assay: Luminex, regular beads (#7), 1:4
HLA-B*1512 (B76) (human) = assay: iBead MFI against regular-bead MFI, IVIg diluted 1:4
HLA-B*1503 (B72) (human) [9] = assay: as above
HLA-B*0702 (B7) (human) [10] = assay: as above
HLA-B*1513 (B77) (human) = assay: as above
HLA-B*1510 (B71) (human) [11] = assay: as above
HLA-B*1402 (B65) (human) [12] = assay: as above
HLA-B*1511 (B75) (human) [13] = assay: as above
HLA-B*1302 (B13) (human) [14] = assay: as above
HLA-B*1516 (B63) (human) [15] = assay: as above
HLA-B*1301 (B13) (human) [16] = assay: as above
HLA-B*0801 (B8) (human) [17] = assay: as above
HLA-B*1401 (B64) (human) [18] = assay: as above
[19] = target: HLA-Cw*0102 (Cw1) (human); assay: Luminex, iBead vs regular bead MFI, 1:4
[20] = target: HLA-Cw*0401 (Cw4) (human); assay: Luminex, iBead vs regular bead MFI, 1:4
[21] = target: HLA-Cw*1402 (Cw14) (human); assay: Luminex, iBead vs regular bead MFI, 1:4
[22] = target: HLA-Cw*1502 (Cw15) (human); assay: Luminex, iBead vs regular bead MFI, 1:4
[23] = target: HLA-Cw*0302 (Cw10) (human); assay: Luminex, iBead vs regular bead MFI, 1:4
[24] = target: HLA-Cw*1701 (Cw17) (human); assay: Luminex, iBead vs regular bead MFI, 1:4
[25] = target: HLA-Cw*1203 (Cw12) (human); assay: Luminex, iBead vs regular bead MFI, 1:4
[26] = target: HLA-Cw*0602 (Cw6) (human); assay: Luminex, iBead vs regular bead MFI, 1:4
[27] = target: HLA-Cw*0304 (Cw10) (human); assay: Luminex, iBead vs regular bead MFI, 1:4
[28] = target: HLA-Cw*0801 (Cw8) (human); assay: Luminex, iBead vs regular bead MFI, 1:4
[29] = target: HLA-Cw*0303 (Cw9) (human); assay: Luminex, iBead vs regular bead MFI, 1:4
[30] = target: HLA-Cw*0702 (Cw7) (human); assay: Luminex, iBead vs regular bead MFI, 1:4
[31] = target: HLA-Cw*0501 (Cw5) (human); assay: Luminex, iBead vs regular bead MFI, 1:4
HLA-B*1501 (B62) (human) = assay: Luminex regular beads (#7), IVIg diluted 1:4
HLA-B*1503 (B72) (human) [32] = assay: Luminex regular beads (#7), IVIg diluted 1:4
HLA-B*0702 (B7) (human) [33] = assay: Luminex regular beads (#7), IVIg diluted 1:4
HLA-B*1510 (B71) (human) [34] = assay: Luminex regular beads (#7), IVIg diluted 1:4
HLA-B*1402 (B65) (human) [35] = assay: Luminex regular beads (#7), IVIg diluted 1:4
HLA-B*1511 (B75) (human) [36] = assay: Luminex regular beads (#7), IVIg diluted 1:4
HLA-B*1801 (B18) (human) = assay: Luminex regular beads (#7), IVIg diluted 1:4
HLA-B*1302 (B13) (human) [37] = assay: Luminex regular beads (#7), IVIg diluted 1:4
HLA-B*1516 (B63) (human) [38] = assay: Luminex regular beads (#7), IVIg diluted 1:4
HLA-B*1502 (B75) (human) = assay: Luminex regular beads (#7), IVIg diluted 1:4
HLA-B*1301 (B13) (human) [39] = assay: Luminex regular beads (#7), IVIg diluted 1:4
HLA-B*0801 (B8) (human) [40] = assay: Luminex regular beads (#7), IVIg diluted 1:4
HLA-B*1401 (B64) (human) [41] = assay: Luminex regular beads (#7), IVIg diluted 1:4
HLA-B*1401 (B64) (human) [42] = assay: Luminex iBeads (#6), IVIg diluted 1:8
[43] = target: Albumin on negative control beads (serum albumin, HSA/BSA) (human or bovine); assay: Luminex, iBead MFI against regular bead MFI, 1:8

Question: Which MFI [1] does the source give for “IVIg Sandoglobulin (Novartis, Basel, Switzerland) (antibody)” here?
Answer: The MFI was 998 MFI.

Question: What about the MFI [2] of the same substance?
Answer: The MFI was 1570 MFI.

Question: And the MFI [3]?
Answer: The MFI was 778 MFI.

Question: And the MFI [4]?
Answer: Its MFI is 1024 MFI.

Question: What about the MFI [5] of the same substance?
Answer: Its MFI is 1490 MFI.

Question: And the MFI [6]?
Answer: The MFI was 844 MFI.

Question: And the MFI [7]?
Answer: The MFI was 1970 MFI.

Question: And the MFI [8]?
Answer: Its MFI is 973 MFI.

Question: What about the Difference % (iBead vs regular bead) (HLA-B*1512 (B76) (human)) of the same substance?
Answer: Its Difference % (iBead vs regular bead) is 199%.

Question: And the Difference % (iBead vs regular bead) (HLA-B*1503 (B72) (human) [9])?
Answer: The Difference % (iBead vs regular bead) was 0%.

Question: And the Difference % (iBead vs regular bead) (HLA-B*0702 (B7) (human) [10])?
Answer: The Difference % (iBead vs regular bead) was 41%.

Question: What about the Difference % (iBead vs regular bead) (HLA-B*1513 (B77) (human)) of the same substance?
Answer: Its Difference % (iBead vs regular bead) is -19%.

Question: What about the Difference % (iBead vs regular bead) (HLA-B*1510 (B71) (human) [11]) of the same substance?
Answer: Its Difference % (iBead vs regular bead) is 13%.

Question: And the Difference % (iBead vs regular bead) (HLA-B*1402 (B65) (human) [12])?
Answer: The Difference % (iBead vs regular bead) was -36%.

Question: And the Difference % (iBead vs regular bead) (HLA-B*1511 (B75) (human) [13])?
Answer: The Difference % (iBead vs regular bead) was -13%.

Question: What about the Difference % (iBead vs regular bead) (HLA-B*1302 (B13) (human) [14]) of the same substance?
Answer: The Difference % (iBead vs regular bead) was 5%.

Question: What about the Difference % (iBead vs regular bead) (HLA-B*1516 (B63) (human) [15]) of the same substance?
Answer: Its Difference % (iBead vs regular bead) is -5%.

Question: And the Difference % (iBead vs regular bead) (HLA-B*1301 (B13) (human) [16])?
Answer: The Difference % (iBead vs regular bead) was -4%.

Question: And the Difference % (iBead vs regular bead) (HLA-B*0801 (B8) (human) [17])?
Answer: The Difference % (iBead vs regular bead) was 18%.

Question: What about the Difference % (iBead vs regular bead) (HLA-B*1401 (B64) (human) [18]) of the same substance?
Answer: The Difference % (iBead vs regular bead) was -67%.

Question: What about the Difference % [19] of the same substance?
Answer: The Difference % was -49%.

Question: What about the Difference % [20] of the same substance?
Answer: The Difference % was -62%.

Question: What about the Difference % [21] of the same substance?
Answer: The Difference % was -59%.

Question: What about the Difference % [22] of the same substance?
Answer: The Difference % was -41%.

Question: What about the Difference % [23] of the same substance?
Answer: Its Difference % is -49%.

Question: And the Difference % [24]?
Answer: The Difference % was -29%.

Question: What about the Difference % [25] of the same substance?
Answer: The Difference % was -35%.

Question: And the Difference % [26]?
Answer: The Difference % was -60%.

Question: What about the Difference % [27] of the same substance?
Answer: Its Difference % is -38%.

Question: And the Difference % [28]?
Answer: Its Difference % is -42%.

Question: And the Difference % [29]?
Answer: Its Difference % is -29%.

Question: And the Difference % [30]?
Answer: The Difference % was -62%.

Question: What about the Difference % [31] of the same substance?
Answer: The Difference % was -42%.

Question: And the MFI (HLA-B*1501 (B62) (human))?
Answer: The MFI was 0 MFI.

Question: And the MFI (HLA-B*1503 (B72) (human) [32])?
Answer: The MFI was 0 MFI.

Question: And the MFI (HLA-B*0702 (B7) (human) [33])?
Answer: Its MFI is 309 MFI.

Question: And the MFI (HLA-B*1510 (B71) (human) [34])?
Answer: Its MFI is 240 MFI.

Question: And the MFI (HLA-B*1402 (B65) (human) [35])?
Answer: Its MFI is 239 MFI.

Question: What about the MFI (HLA-B*1511 (B75) (human) [36]) of the same substance?
Answer: Its MFI is 637 MFI.

Question: What about the MFI (HLA-B*1801 (B18) (human)) of the same substance?
Answer: The MFI was 0 MFI.

Question: And the MFI (HLA-B*1302 (B13) (human) [37])?
Answer: The MFI was 476 MFI.

Question: What about the MFI (HLA-B*1516 (B63) (human) [38]) of the same substance?
Answer: The MFI was 799 MFI.

Question: What about the MFI (HLA-B*1502 (B75) (human)) of the same substance?
Answer: Its MFI is 157 MFI.

Question: And the MFI (HLA-B*1301 (B13) (human) [39])?
Answer: The MFI was 524 MFI.

Question: What about the MFI (HLA-B*0801 (B8) (human) [40]) of the same substance?
Answer: The MFI was 233 MFI.

Question: And the MFI (HLA-B*1401 (B64) (human) [41])?
Answer: Its MFI is 621 MFI.

Question: With “IVIg GamaSTAN S/D (Talecris Biotherapeutics, USA) (antibody)” as the substance, how does the MFI (HLA-B*1401 (B64) (human) [42]) read?
Answer: The MFI was 269 MFI.

Question: How did the Difference % (iBead against regular bead) [43] turn out when “Octagam (IVIg, Octapharma, Lachen, Switzerland) (antibody)” was run?
Answer: Its Difference % (iBead against regular bead) is -29%.
